Columns and labels:
pNPB = test: Proxy for plastic degradation [Residual activity]; conditions: pH 8, part of the chain shown
[1] = Melting temperature [CD spectroscopy]; conditions: pH 8.5; part of the chain shown

Row | Protein | Proxy for plastic degradation (pNPB; 25 °C) | Proxy for plastic degradation (pNPB; 30.7 °C) | Proxy for plastic degradation (pNPB; 40.2 °C) | Proxy for plastic degradation (pNPB; 50.6 °C) | Proxy for plastic degradation (pNPB; 54.9 °C) | Proxy for plastic degradation (pNPB; 59.5 °C) | Proxy for plastic degradation (pNPB; 65.6 °C) | Proxy for plastic degradation (pNPB; 68.6 °C) | Proxy for plastic degradation (pNPB; 74.8 °C) | Proxy for plastic degradation (pNPB; 78.8 °C) | Melting temperature [1]
1 | unnamed (protein) ANPYERGPNPTDALLEARSGPFSVSEENVSRLSASGFGGGTIYYPRENNTYGAVAISPGYTGTEASIAWLGERIASHGFVVITIDTITTLDQPDSRAEQLNAALNHMINRASSTVRSRIDSSRLAVMGHSMGGGGSLRLASQRPDLKAAIPLTPWHLNKNWSSVTVPTLIIGADLDTIAPVATHAKPFYNSLPSSISKAYLELDGATHFAPNIPNKIIGKYSVAWLKRFVDNDTRYTQFLCPGPRDGLFGEVEEYRSTCPFY | 100% | 110% | 95% | 115% | 85% | 65% | 2% | 1% | 0% | 0% | 
2 | unnamed (protein) ANPYERGPNPTDALLEARSGPFSVSEENVSRLSASGFGGGTIYYPRENNTYGAVAISPGYTGTEASIAWLGERIASHGFVVITIDTITTLDQPDSRAEQLNAALNHMINRASSTVRSRIDSSRLAVMGHSMGGGGSLRLASQRPDLKAAIPLTPWHLNKNWSSVTVPTLIIGADLDTIAPVATHAKPFYNSLPSSISKAYLELDGATHFAPNIPNKIIGKYSVAWLKRFVDNDTRYTQFLCPGPRDGLFGEVEEYRSTCPF |  |  |  |  |  |  |  |  |  |  | 70 °C

— the PETadex activity labels (doi:10.1007/s00253-014-5672-0)
